Assay results: US20230093708A1, “PROTEIN NANOPARTICLE DESIGN AND APPLICATION” (Duke University, priority 2020, published 2023)

Columns and labels:
[1] = Static and dynamic light scattering (SLS/DLS) of block co-polypeptides; assay type: physicochemical; details: for ρ: shape factor Rg/Rh
Procedure: Key parameters of interest are the hydrophilicity of the corona-forming block, the hydrophilicity of the core block, the overall length of the co-polypeptide and the ratio of the two blocks. Parameters of evaluation are the size, morphology, stability, and thermoresponsive behavior. All measurements were made in 140 mM NaCl, 10 mM phosphate buffer, 3 mM KCl, pH 7.4 unless otherwise specified. Size was evaluated by the hydrodynamic radios (Rh) and radius of gyration (Rg) by dynamic light scattering (DLS) and static light scattering (SLS) respectively. Rg and Rh can be combined to yield the shape factor ρ=Rg/Rh, which provides a rough indication of the morphology of the scatterer. […] For an elongated scatterer, the shape factor depends upon the aspect ratio. A combination of temperature dependent turbidity and DLS was utilized to determine the phase behavior of the block co-polypeptides. Cryogenic transmission electron microscopy (Cryo-TEM) was utilized to evaluate the morphology and provide crucial insight into the hydration of the core/corona chains. Stability of the assembled nanostructure was determined by a shift in the I1/I3 fluorescent bands of pyrene as described previously.
Static and dynamic light scattering measurements (SLS/DLS) were performed using an ALV/CGS-3 goniometer system (Langen, Germany). Samples for the ALV/CGS-3 goniometer system were prepared at a concentration of 10 μM in PBS and filtered through 0.45 μm Millex-GV filters into a 10 mm disposable borosilicate glass tube (Fischer). Simultaneous SLS and DLS measurements were obtained at 15° C. of the ELP for angles between 30°-150° at 5° increments, with each angle consisting of 3 runs for 15 s. SLS experiments were only conducted for self-assembling block co-polypeptides, since the molecular weight of a single block co-polypeptide chain is already known, and the Rg of a single chain is likely near or below the detection limit of the SLS instrument. The differential refractive index (dn/dc) was determined by measuring the refractive index at different concentrations using an Abbemat 500 refractometer (Anton Paar, Graz, Austria). DLS data were analyzed by fitting the autocorrelation function with a cumulant fit, using the built-in ALV software. Hydrodynamic radius (Rh) was plotted against angle and extrapolated to zero. SLS data were analyzed by partial Zimm plots using ALVSTAT software in order to determine the Rg and molecular weight (MW).

[2] = Cryo-TEM micelle core size, inter-core spacing and aspect ratio; assay type: physicochemical
Procedure: Using the data from FIG. 18, particularly the longest straight line of an individual particle and a corresponding perpendicular measurement were made to describe the aspect ratio of particles observed.
Cryo-TEM experiments were performed at Duke University's Shared Materials Instrumentation Facility (Durham, N.C.). Lacey holey carbon grids (Ted Pella, Redding, Calif.) were glow discharged in a PELCO EasiGlow Cleaning System (Ted Pella, Redding, Calif.). A 3 μL drop (10 μM RLPn-ELP80) was deposited onto the grid, blotted for 3 s with an offset of −3 mm, and vitrified in liquid ethane using the Vitrobot Mark III (FEI, Eindhoven, Netherlands). Prior to vitrification, the sample chamber was maintained at 15° C. and 100% relative humidity to prevent sample evaporation. Grids were transferred to a Gatan 626 cryoholder (Gatan, Pleasanton, Calif.) and imaged with a FEI Tecnai G2 Twin TEM (FEI, Eindhoven, Netherlands), operating at 80 keV. Feature sizes and spacing distances were measured in ImageJ by manual measurement of at least 25 particles.

B1: RLP60-ELP80: RLP-ELP block co-polypeptide, 60 core and 80 corona repeats (protein)
chain: QYPSDGRGQYPSDGRGQYPSDGRGQYPSDGRGQYPSDGRGQYPSDGRGQYPSDGRGQYPSDGRGQYPSDGRGQYPSDGRGQYPSDGRGQYPSDGRGQYPSDGRGQYPSDGRGQYPSDGRGQYPSDGRGQYPSDGRGQYPSDGRGQYPSDGRGQYPSDGRGQYPSDGRGQYPSDGRGQYPSDGRGQYPSDGRGQYPSDGRGQYPSDGRGQYPSDGRGQYPSDGRGQYPSDGRGQYPSDGRGQYPSDGRGQYPSDGRGQYPSDGRGQYPSDGRGQYPSDGRGQYPSDGRGQYPSDGRGQYPSDGRGQYPSDGRGQYPSDGRGQYPSDGRGQYPSDGRGQYPSDGRGQYPSDGRGQYPSDGRGQYPSDGRGQYPSDGRGQYPSDGRGQYPSDGRGQYPSDGRGQYPSDGRGQYPSDGRGQYPSDGRGQYPSDGRGQYPSDGRGQYPSDGRGQYPSDGRGQYPSDGRGQYPSDGRGQYPSDGRGGAGVPGGGVPGAGVPGGGVPGAGVPGGGVPGAGVPGGGVPGAGVPGGGVPGAGVPGGGVPGAGVPGGGVPGAGVPGGGVPGAGVPGGGVPGAGVPGGGVPGAGVPGGGVPGAGVPGGGVPGAGVPGGGVPGAGVPGGGVPGAGVPGGGVPGAGVPGGGVPGAGVPGGGVPGAGVPGGGVPGAGVPGGGVPGAGVPGGGVPGAGVPGGGVPGAGVPGGGVPGAGVPGGGVPGAGVPGGGVPGAGVPGGGVPGAGVPGGGVPGAGVPGGGVPGAGVPGGGVPGAGVPGGGVPGAGVPGGGVPGAGVPGGGVPGAGVPGGGVPGAGVPGGGVPGAGVPGGGVPGAGVPGGGVPGAGVPGGGVPGAGVPGGGVPGAGVPGGGVPGAGVPGGGVPGAGVPGGGVP
- Nagg ([1]; Table 1, 10 μM in PBS, 15 °C): 231
- Rg(nm) ([1]; Table 1, 10 μM in PBS, 15 °C): 23.8 nm
- Rh (nm) ([1]; Table 1, 10 μM in PBS, 15 °C): 36.7 nm
- ρ ([1]; Table 1): 0.65
- core radius (cryo-TEM) [2]: ~17.5 nm
- spacing between particle cores (cryo-TEM) [2]: 29.5 nm
- Spacing (nm) ([2]; Table 2, inter-core spacing, mean ± standard deviation): 28.9 ± 5.1 nm
- Core radius (nm) ([2]; Table 2, mean ± standard deviation, 10 μM in 140 mM PBS): 17.5 ± 2.7 nm

B2: RLP20-ELP40: RLP-ELP block co-polypeptide, (QYPSDGRG)20-(VPG[A:G]G)40 (protein)
chain: QYPSDGRGQYPSDGRGQYPSDGRGQYPSDGRGQYPSDGRGQYPSDGRGQYPSDGRGQYPSDGRGQYPSDGRGQYPSDGRGQYPSDGRGQYPSDGRGQYPSDGRGQYPSDGRGQYPSDGRGQYPSDGRGQYPSDGRGQYPSDGRGQYPSDGRGQYPSDGRGGAGVPGGGVPGAGVPGGGVPGAGVPGGGVPGAGVPGGGVPGAGVPGGGVPGAGVPGGGVPGAGVPGGGVPGAGVPGGGVPGAGVPGGGVPGAGVPGGGVPGAGVPGGGVPGAGVPGGGVPGAGVPGGGVPGAGVPGGGVPGAGVPGGGVPGAGVPGGGVPGAGVPGGGVPGAGVPGGGVPGAGVPGGGVPGAGVPGGGVP
- hydrodynamic radius (Rh) [1]: 5.3 nm
- Rh (nm) ([1]; Table 3, 10 μM in PBS, 15 °C): 5.3 nm

B3: RLP60-ELPV80: RLP-ELP block co-polypeptide with Val guest residue in the corona (protein)
chain: QYPSDGRGQYPSDGRGQYPSDGRGQYPSDGRGQYPSDGRGQYPSDGRGQYPSDGRGQYPSDGRGQYPSDGRGQYPSDGRGQYPSDGRGQYPSDGRGQYPSDGRGQYPSDGRGQYPSDGRGQYPSDGRGQYPSDGRGQYPSDGRGQYPSDGRGQYPSDGRGQYPSDGRGQYPSDGRGQYPSDGRGQYPSDGRGQYPSDGRGQYPSDGRGQYPSDGRGQYPSDGRGQYPSDGRGQYPSDGRGQYPSDGRGQYPSDGRGQYPSDGRGQYPSDGRGQYPSDGRGQYPSDGRGQYPSDGRGQYPSDGRGQYPSDGRGQYPSDGRGQYPSDGRGQYPSDGRGQYPSDGRGQYPSDGRGQYPSDGRGQYPSDGRGQYPSDGRGQYPSDGRGQYPSDGRGQYPSDGRGQYPSDGRGQYPSDGRGQYPSDGRGQYPSDGRGQYPSDGRGQYPSDGRGQYPSDGRGQYPSDGRGQYPSDGRGQYPSDGRGGVGVPGVGVPGVGVPGVGVPGVGVPGVGVPGVGVPGVGVPGVGVPGVGVPGVGVPGVGVPGVGVPGVGVPGVGVPGVGVPGVGVPGVGVPGVGVPGVGVPGVGVPGVGVPGVGVPGVGVPGVGVPGVGVPGVGVPGVGVPGVGVPGVGVPGVGVPGVGVPGVGVPGVGVPGVGVPGVGVPGVGVPGVGVPGVGVPGVGVPGVGVPGVGVPGVGVPGVGVPGVGVPGVGVPGVGVPGVGVPGVGVPGVGVPGVGVPGVGVPGVGVPGVGVPGVGVPGVGVPGVGVPGVGVPGVGVPGVGVPGVGVPGVGVPGVGVPGVGVPGVGVPGVGVPGVGVPGVGVPGVGVPGVGVPGVGVPGVGVPGVGVPGVGVPGVGVPGVGVPGVGVPGVGVPGVGVPGVGVP
- Nagg ([1]; Table 5, 10 μM in PBS, 15 °C): 565
- Rg(nm) ([1]; Table 5, 10 μM in PBS, 15 °C): 41.3 nm
- Rh (nm) ([1]; Table 5, 10 μM in PBS, 15 °C): 39.4 nm
- ρ ([1]; Table 5): 1.0

B4: [S]-80-[NHQ]-40: block co-polypeptide of two UCST blocks, (GRGDSPYS)80-(GRGDNPHQ)40 (protein)
chain: GRGDSPYSGRGDSPYSGRGDSPYSGRGDSPYSGRGDSPYSGRGDSPYSGRGDSPYSGRGDSPYSGRGDSPYSGRGDSPYSGRGDSPYSGRGDSPYSGRGDSPYSGRGDSPYSGRGDSPYSGRGDSPYSGRGDSPYSGRGDSPYSGRGDSPYSGRGDSPYSGRGDSPYSGRGDSPYSGRGDSPYSGRGDSPYSGRGDSPYSGRGDSPYSGRGDSPYSGRGDSPYSGRGDSPYSGRGDSPYSGRGDSPYSGRGDSPYSGRGDSPYSGRGDSPYSGRGDSPYSGRGDSPYSGRGDSPYSGRGDSPYSGRGDSPYSGRGDSPYSGRGDSPYSGRGDSPYSGRGDSPYSGRGDSPYSGRGDSPYSGRGDSPYSGRGDSPYSGRGDSPYSGRGDSPYSGRGDSPYSGRGDSPYSGRGDSPYSGRGDSPYSGRGDSPYSGRGDSPYSGRGDSPYSGRGDSPYSGRGDSPYSGRGDSPYSGRGDSPYSGRGDSPYSGRGDSPYSGRGDSPYSGRGDSPYSGRGDSPYSGRGDSPYSGRGDSPYSGRGDSPYSGRGDSPYSGRGDSPYSGRGDSPYSGRGDSPYSGRGDSPYSGRGDSPYSGRGDSPYSGRGDSPYSGRGDSPYSGRGDSPYSGRGDSPYSGRGDSPYSGRGDNPHQGRGDNPHQGRGDNPHQGRGDNPHQGRGDNPHQGRGDNPHQGRGDNPHQGRGDNPHQGRGDNPHQGRGDNPHQGRGDNPHQGRGDNPHQGRGDNPHQGRGDNPHQGRGDNPHQGRGDNPHQGRGDNPHQGRGDNPHQGRGDNPHQGRGDNPHQGRGDNPHQGRGDNPHQGRGDNPHQGRGDNPHQGRGDNPHQGRGDNPHQGRGDNPHQGRGDNPHQGRGDNPHQGRGDNPHQGRGDNPHQGRGDNPHQGRGDNPHQGRGDNPHQGRGDNPHQGRGDNPHQGRGDNPHQGRGDNPHQGRGDNPHQGRGDNPHQ
- Rh (nm) ([1]; Table 9, UCST-UCST block co-polypeptides): 7.0 nm

B5: RLP60-ELPS80: RLP-ELP block co-polypeptide with Ser guest residue in the corona (protein)
chain: QYPSDGRGQYPSDGRGQYPSDGRGQYPSDGRGQYPSDGRGQYPSDGRGQYPSDGRGQYPSDGRGQYPSDGRGQYPSDGRGQYPSDGRGQYPSDGRGQYPSDGRGQYPSDGRGQYPSDGRGQYPSDGRGQYPSDGRGQYPSDGRGQYPSDGRGQYPSDGRGQYPSDGRGQYPSDGRGQYPSDGRGQYPSDGRGQYPSDGRGQYPSDGRGQYPSDGRGQYPSDGRGQYPSDGRGQYPSDGRGQYPSDGRGQYPSDGRGQYPSDGRGQYPSDGRGQYPSDGRGQYPSDGRGQYPSDGRGQYPSDGRGQYPSDGRGQYPSDGRGQYPSDGRGQYPSDGRGQYPSDGRGQYPSDGRGQYPSDGRGQYPSDGRGQYPSDGRGQYPSDGRGQYPSDGRGQYPSDGRGQYPSDGRGQYPSDGRGQYPSDGRGQYPSDGRGQYPSDGRGQYPSDGRGQYPSDGRGQYPSDGRGQYPSDGRGQYPSDGRGGSGVPGSGVPGSGVPGSGVPGSGVPGSGVPGSGVPGSGVPGSGVPGSGVPGSGVPGSGVPGSGVPGSGVPGSGVPGSGVPGSGVPGSGVPGSGVPGSGVPGSGVPGSGVPGSGVPGSGVPGSGVPGSGVPGSGVPGSGVPGSGVPGSGVPGSGVPGSGVPGSGVPGSGVPGSGVPGSGVPGSGVPGSGVPGSGVPGSGVPGSGVPGSGVPGSGVPGSGVPGSGVPGSGVPGSGVPGSGVPGSGVPGSGVPGSGVPGSGVPGSGVPGSGVPGSGVPGSGVPGSGVPGSGVPGSGVPGSGVPGSGVPGSGVPGSGVPGSGVPGSGVPGSGVPGSGVPGSGVPGSGVPGSGVPGSGVPGSGVPGSGVPGSGVPGSGVPGSGVPGSGVPGSGVPGSGVPGSGVP
- Nagg ([1]; Table 5, 10 μM in PBS, 15 °C): 244
- Rg(nm) ([1]; Table 5, 10 μM in PBS, 15 °C): 27.5 nm
- Rh (nm) ([1]; Table 5, 10 μM in PBS, 15 °C): 43.5 nm
- ρ ([1]; Table 5): 0.6
